The text below walks through data of US20020107366A1 (JURIDICAL FOUNDATION THE CHEMO SERO THERAPEUTIC RESEARCH …, published 2002).

B2: FLAF p40 (ligand)
chain: IWELEKNVYVVELDWHPDAPGEMVVLTCNTPEEDDITWTSDQSSEVLGSGKTLTIQVKEFADAGQYTCHKGGEVLSHSFLLIHKKEDGIWSTDILREQKESKNKIFLKCEAKNYSGRFTCWWLTAISTDLKFTVKSSRGSSDPQGVTCGAATLSAEKVRVDNRDYKKYTVECQEGSACPAAEESLPIEVVVDAIHKLKYENYTSSFFIRDIIKPDPPKNLQLKPLKNSRHVEVSWEYPDTWSTPHSYFSLTFGVQVQGKNNREKKDRLSVDKTSAKVVCHKDAKIRVQARDRYYSSSWSNWASVSCS
notes: also called protein with a molecular weight of about 40,000

The data set “FLAF p40” concerns the target B2. In words: non-reducing SDS-PAGE and Western blot with anti-p35 and anti-p40 antibodies; subunit association. The procedure: These bands were analyzed by Western blot as described in Example 2 wherein two membranes were prepared, i.e. one using a monoclonal antibody against the partial synthetic peptide of FLAF p35 produced by the clone F18-4 as described in Example 12 as a primary antibody and another using the antibody against FLAF p40 as described in Example 11. As a result, both p75 and p80 reacted with both antibodies to confirm that they are both heterologous dimer of FLAF p35 and FLAF p40.
Background: In western blotting, separated proteins are transferred to a membrane and probed.

Data set [1] concerns the molecule itself. In words: Western blot of culture supernatant of COS7 cells transfected with CAGfp40; self-association of p40. The procedure: The day (20 hours) before transfection, COS7 cells were plated on a 6 well plate at 2×10⁵ cells/well. On the next day, Lipofect Ace reagent was mixed with the expression plasmid (1 μg of cAGf40 per well) and the mixture was left to stand at room temperature for 15 minutes and then added to the COS7 cells, followed by addition of serum free medium Opti-MEM (0.8 ml). On the next day, 2 ml of serum free medium (ASF104; Ajinomoto K. K.) was added and culture was continued for additional 2 days and then culture supernatant was recovered. A portion of the supernatant was subjected to Western blot as described in Example 11 to detect expression products which reacted with polyclonal antibodies which recognize FLAF p40. As a result, bands corresponding to FLAF p40 reactive with anti-FLAF p40 antibody (MW about 40,000) and to a homologous dimer thereof (MW about 80,000) were detected (FIG. 11).
A polyclonal antibody against FLAF p40 was prepared by injecting each 1 ml of the FLAF p40 expression plasmid (CAGfp40) (1 mg/ml; Example 5) intramuscularly into both rear legs of a rabbit four times at every 3 weeks. Western blot was used to determine whether the obtained antibody recognized FLAF p40 (FIG. 16). First, purified FLAF was subjected to SDS-PAGE in the absence of 2-mercaptoethanol and then transferred to PVDF membrane as described in Example 3. […]

B1: FLAF p35 (ligand)
chain: RNLPTPTPSPGMFQCLNHSQTLLRAISNTLQKARQTLEFYSCTSEEIDHEDITKDKTSTVEACLPLELTMNESCLASREISLITNGSCLASRKTSFMTTLCLSSIYEDLKMYQVEFKAMNAKLLMDPKRQIFLDQNMLTAIDELLQALNVNSVTVPQNSSLEEPDFYKTKIKLCILLHAFRIRAVTINRMMSYLNSS
notes: also called protein with a molecular weight of about 35,000
On to B1, for which the binding result with FLAF p40 is given as “binds”.
Take B2: the binding result in data set [1] was “binds”.
